Experiment: Static and dynamic light scattering (SLS/DLS) of block co-polypeptides
Type: physicochemical
Procedure: Key parameters of interest are the hydrophilicity of the corona-forming block, the hydrophilicity of the core block, the overall length of the co-polypeptide and the ratio of the two blocks. Parameters of evaluation are the size, morphology, stability, and thermoresponsive behavior. All measurements were made in 140 mM NaCl, 10 mM phosphate buffer, 3 mM KCl, pH 7.4 unless otherwise specified. Size was evaluated by the hydrodynamic radios (Rh) and radius of gyration (Rg) by dynamic light scattering (DLS) and static light scattering (SLS) respectively. Rg and Rh can be combined to yield the shape factor ρ=Rg/Rh, which provides a rough indication of the morphology of the scatterer. […] For an elongated scatterer, the shape factor depends upon the aspect ratio. A combination of temperature dependent turbidity and DLS was utilized to determine the phase behavior of the block co-polypeptides. Cryogenic transmission electron microscopy (Cryo-TEM) was utilized to evaluate the morphology and provide crucial insight into the hydration of the core/corona chains. Stability of the assembled nanostructure was determined by a shift in the I1/I3 fluorescent bands of pyrene as described previously.
Static and dynamic light scattering measurements (SLS/DLS) were performed using an ALV/CGS-3 goniometer system (Langen, Germany). Samples for the ALV/CGS-3 goniometer system were prepared at a concentration of 10 μM in PBS and filtered through 0.45 μm Millex-GV filters into a 10 mm disposable borosilicate glass tube (Fischer). Simultaneous SLS and DLS measurements were obtained at 15° C. of the ELP for angles between 30°-150° at 5° increments, with each angle consisting of 3 runs for 15 s. SLS experiments were only conducted for self-assembling block co-polypeptides, since the molecular weight of a single block co-polypeptide chain is already known, and the Rg of a single chain is likely near or below the detection limit of the SLS instrument. The differential refractive index (dn/dc) was determined by measuring the refractive index at different concentrations using an Abbemat 500 refractometer (Anton Paar, Graz, Austria). DLS data were analyzed by fitting the autocorrelation function with a cumulant fit, using the built-in ALV software. Hydrodynamic radius (Rh) was plotted against angle and extrapolated to zero. SLS data were analyzed by partial Zimm plots using ALVSTAT software in order to determine the Rg and molecular weight (MW).

Molecule | Nagg (Table 5, 10 μM in PBS, 15 °C) | Rg(nm) (Table 5, 10 μM in PBS, 15 °C) | Rh (nm) (Table 5, 10 μM in PBS, 15 °C) | ρ (Table 5, shape factor Rg/Rh) | hydrodynamic radius (Rh) | Rh (nm) (Table 3, 10 μM in PBS, 15 °C)
RLP60-ELPV80: RLP-ELP block co-polypeptide with Val guest residue in the corona (protein) QYPSDGRGQYPSDGRGQYPSDGRGQYPSDGRGQYPSDGRGQYPSDGRGQYPSDGRGQYPSDGRGQYPSDGRGQYPSDGRGQYPSDGRGQYPSDGRGQYPSDGRGQYPSDGRGQYPSDGRGQYPSDGRGQYPSDGRGQYPSDGRGQYPSDGRGQYPSDGRGQYPSDGRGQYPSDGRGQYPSDGRGQYPSDGRGQYPSDGRGQYPSDGRGQYPSDGRGQYPSDGRGQYPSDGRGQYPSDGRGQYPSDGRGQYPSDGRGQYPSDGRGQYPSDGRGQYPSDGRGQYPSDGRGQYPSDGRGQYPSDGRGQYPSDGRGQYPSDGRGQYPSDGRGQYPSDGRGQYPSDGRGQYPSDGRGQYPSDGRGQYPSDGRGQYPSDGRGQYPSDGRGQYPSDGRGQYPSDGRGQYPSDGRGQYPSDGRGQYPSDGRGQYPSDGRGQYPSDGRGQYPSDGRGQYPSDGRGQYPSDGRGQYPSDGRGQYPSDGRGGVGVPGVGVPGVGVPGVGVPGVGVPGVGVPGVGVPGVGVPGVGVPGVGVPGVGVPGVGVPGVGVPGVGVPGVGVPGVGVPGVGVPGVGVPGVGVPGVGVPGVGVPGVGVPGVGVPGVGVPGVGVPGVGVPGVGVPGVGVPGVGVPGVGVPGVGVPGVGVPGVGVPGVGVPGVGVPGVGVPGVGVPGVGVPGVGVPGVGVPGVGVPGVGVPGVGVPGVGVPGVGVPGVGVPGVGVPGVGVPGVGVPGVGVPGVGVPGVGVPGVGVPGVGVPGVGVPGVGVPGVGVPGVGVPGVGVPGVGVPGVGVPGVGVPGVGVPGVGVPGVGVPGVGVPGVGVPGVGVPGVGVPGVGVPGVGVPGVGVPGVGVPGVGVPGVGVPGVGVPGVGVPGVGVPGVGVPGVGVP | 565 | 41.3 nm | 39.4 nm | 1.0 | – | –
RLP20-ELP40: RLP-ELP block co-polypeptide, (QYPSDGRG)20-(VPG[A:G]G)40 (protein) QYPSDGRGQYPSDGRGQYPSDGRGQYPSDGRGQYPSDGRGQYPSDGRGQYPSDGRGQYPSDGRGQYPSDGRGQYPSDGRGQYPSDGRGQYPSDGRGQYPSDGRGQYPSDGRGQYPSDGRGQYPSDGRGQYPSDGRGQYPSDGRGQYPSDGRGQYPSDGRGGAGVPGGGVPGAGVPGGGVPGAGVPGGGVPGAGVPGGGVPGAGVPGGGVPGAGVPGGGVPGAGVPGGGVPGAGVPGGGVPGAGVPGGGVPGAGVPGGGVPGAGVPGGGVPGAGVPGGGVPGAGVPGGGVPGAGVPGGGVPGAGVPGGGVPGAGVPGGGVPGAGVPGGGVPGAGVPGGGVPGAGVPGGGVPGAGVPGGGVP | – | – | – | – | 5.3 nm | 5.3 nm

Source: patent publication US20230093708A1, “PROTEIN NANOPARTICLE DESIGN AND APPLICATION” (Duke University, priority 2020, published 2023)
